Data reported in US20210284749A1 (ABL BIO, published 2021).
Where “and” joins values, the source holds several entries; their conditions need not be identical. Equal values may be shown once.

B1: anti-BCMA IgG antibody 5A6 (antibody, V domains shown)
VH: EVQLLESGGGLVQPGGSLRLSCAASGFTFSNYGVHWVRQAPGKGLEWVSYISYSGGTYYNPSLKSRFTISRDNSKNTLYLQMNSLRAEDTAVYYCARDSDDFGFDYWGQGTLVTVSS
VL: QSVLTQPPSASGTPGQRVTISCQGDSLRSYYVNWYQQLPGTAPKLLIYDHSKRPTGVPDRFSGSKSGTSASLAISGLRSEDEADYYCQSYDSSTVVFGGGTKLTVLG
notes: also called 5A6 WT; 5A6 antibody
B2: anti-BCMA IgG antibody 5D5 (antibody, V domains shown)
VH: EVQLLESGGGLVQPGGSLRLSCAASGFTFSDYGLSWVRQAPGKGLEWVSLIDSSGSSTFYADSVKGRFTISRDNSKNTLYLQMNSLRAEDTAVYYCAKEHGLFDSWGQGTLVTVSS
VL: EIVLTQSPGTLSLSPGERATLSCKASQDIDDDINWYQQKPGQAPRLLIYDASLRATGIPDRFSGSGSGTDFTLTISRLEPEDFAVYYCQQSLRTPITFGQGTKLEIKR
notes: also called 5D5 WT; 5D5 antibody

What was measured:
[1] = biological target: T1, rat BCMA (1-49) fused to the Fc region of human IgG1 (rat; human); experiment: ELISA on 100 ng coated rat BCMA, antibody titrated, anti-human Fab HRP, absorbance 450 nm
T1 construct: Sino Biological Inc. 80156-R01H; also called 80156-R01H; not shown: Fc region of human IgG1
T1 chain: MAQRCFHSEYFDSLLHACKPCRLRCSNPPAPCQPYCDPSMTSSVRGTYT
Description: (§1) 100 ng of human, monkey, mouse, and rat BCMA antigens prepared in Example 1.1 were coated on the bottom of the plate, and then coated with 3% BSA to block nonspecific binding. Using the selected anti-BCMA IgG antibodies as primary antibodies, and the anti-human Fab HRP (1:20000 dilution) as a secondary antibody, ELISA assay was performed as described in Example 1.3.
(§2) Absorbancies at 450 nm measured with a microplate reader are shown in FIG. 3, and half maximal effective concentrations (EC₅₀) (nM) are shown in Table 9.

[2] = biological target: T2, monkey (Rhesus) BCMA (1-53) fused to the Fc region of human IgG1 (monkey (Rhesus); human, UniProt Q02223 1-54); experiment: ELISA on 100 ng coated rhesus BCMA, antibody titrated, anti-human Fab HRP, absorbance 450 nm
T2 construct: Sino Biological Inc. 90103-C02H; also called monkey BCMA; Monkey BCMA (1-53); not shown: Fc region of human IgG1
Description: as §1, §2

[3] = biological target: T3, recombinant human BCMA (ELISA antigen, construct not specified) (human, UniProt Q02223 1-54); experiment: ELISA on recombinant BCMA
T3 construct: Fc 1-51; Fc/His 1-51; Fc 4-48) was coated in these ELISAs; also called recombinant BCMA; recombinant protein
T3 sequence: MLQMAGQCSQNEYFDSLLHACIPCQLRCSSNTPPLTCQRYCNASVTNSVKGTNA

[4] = biological target: T4, human BCMA expressed on cell surface (H929, OPM-2, CHOK1-hBCMA cells) (human, UniProt Q02223 1-184); experiment: FACS on H929 cells, 10 µg/ml antibody, anti-human Fc-FITC; open histogram shifted right of the filled control
T4 construct: also called cell-surface BCMA; BCMA on cell surface
T4 sequence: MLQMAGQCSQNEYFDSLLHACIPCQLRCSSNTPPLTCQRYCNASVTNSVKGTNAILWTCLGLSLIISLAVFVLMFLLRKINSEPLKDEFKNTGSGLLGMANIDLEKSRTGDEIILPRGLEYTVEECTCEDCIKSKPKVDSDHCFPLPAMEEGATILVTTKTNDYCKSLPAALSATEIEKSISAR
Description: Multiple myeloma cancer cells H929 (ATCC, CRL9068™) and OPM-2 cell line (DSMZ, ACC 50), which are known to express BCMA, were prepared, and human BCMA-overexpressed CHOK1-hBCMA cell line (constructed by ABIBio) were prepared.
10 μg/ml of the seven IgG antibodies (B58, 5A6, 5D5, 5B5, 1H, 2G, and 5G) purified in Example 1.4 was added to the prepared cells, incubated at 4° C. for 1 hour, and then washed two times with a PBS buffer solution. The anti-human Fc-FITC was diluted in 1:400, incubated at 4° C. for 1 hour, and then washed with a PBS buffer solution. These processes were repeated. In FIGS. 2A and 2B, MFI indicates mean fluorescence intensity.

[5] = biological target: T3, recombinant human BCMA (ELISA antigen, …); experiment: ELISA on 100 ng coated human BCMA, antibody titrated, anti-human Fab HRP, absorbance 450 nm
Description: as §1, §2

[6] = biological target: T4, human BCMA expressed on cell surface …; experiment: FACS on H929 cells
[7] = biological target: T3, recombinant human BCMA (ELISA antigen, …); experiment: ELISA on coated recombinant human BCMA, antibody titrated, HRP anti-Fab detection, absorbance 450 nm
Description: Specific binding abilities of the anti-BCMA IgG antibodies isolated in Example 1.4 to recombinant BCMA protein were analyzed by ELISA.
Using recombinant human BCMA or monkey BCMA as an antigen, and HRP-conjugated Fab polychronal antibody reagent (Pierce, 31414) as a secondary antibody, ELISA was performed as described in Example 1.3.

[8] = biological target: T3, recombinant human BCMA (ELISA antigen, …); experiment: ELISA, 100 ng coated antigen
Description: as §1, §2

[9] = biological target: T2, monkey (Rhesus) BCMA (1-53) fused to …; experiment: ELISA, 100 ng coated antigen
Description: as §1, §2

[10] = biological target: T5, human BCMA-Fc/His (1-51) (human, UniProt Q02223 1-51); experiment: BLI (Octet), antigen on Ni-NTA biosensor, IgG in solution
T5 construct: also called recombinant human BCMA-Fc/His; recombinant human BCMA-His (Sino Biological Inc.); not shown: Fc region; C-terminal His tag
T5 sequence: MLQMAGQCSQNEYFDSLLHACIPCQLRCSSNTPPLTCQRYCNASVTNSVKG
Procedure, shortened: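 Human BCMA-Fc/His loaded at 5 μg/ml onto Ni-NTA biosensors to a 0.5–1.0 nm threshold, with antibody in solution. Association 5 min, dissociation 20 min, 30° C, 1XKB buffer. kon, kdis and KD derived in Octet analysis.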

Row | Binder | binding result [1] | EC50 (read off the curve) [2] [µg/mL] | EC50 [3] | MFI [4] | EC50 (read off the curve) [5] [µg/mL] | MFI [6] | EC50 (read off the curve) [7] [µg/mL] | EC50 [8] [nM] | EC50 [9] [nM] | Kd [10] [nM] | koff [10] [s⁻¹] | kon [10] [M⁻¹ s⁻¹] | EC50 (read off the curve) [1] [µg/mL]
1 | B1 | no binding (tested: about 30 µg/ml) | ~0.02 | 0.0631 nM and 0.0643 nM and 0.077 nM | 100 | ~0.02 | 68.2 | ~0.1 | 100 | 153 | 0.0212 | 1.08e-05 | 509000 | –
2 | B2 | – | ~0.01 | 0.0708 nM and 0.0652 nM | 29.9 | ~0.01 | 36.4 | ~0.1 | 140 | 94 | 0.114 | 0.000105 | 919000 | ~0.02
